# Laboratory results: IntAct's records for PubMed 16438971
# B1: Calcium-dependent protein kinase 11 (Arabidopsis thaliana (Mouse-ear cress)), Q39016 (parent)
# chain: METKPNPRRPSNTVLPYQTPRLRDHYLLGKKLGQGQFGTTYLCTEKSTSANYACKSIPKRKLVCREDYEDVWREIQIMHHLSEHPNVVRIKGTYEDSVFVHIVMEVCEGGELFDRIVSKGHFSEREAVKLIKTILGVVEACHSLGVMHRDLKPENFLFDSPKDDAKLKATDFGLSVFYKPGQYLYDVVGSPYYVAPEVLKKCYGPEIDVWSAGVILYILLSGVPPFWAETESGIFRQILQGKLDFKSDPWPTISEAAKDLIYKMLERSPKKRISAHEALCHPWIVDEQAAPDKPLDPAVLSRLKQFSQMNKIKKMALRVIAERLSEEEIGGLKELFKMIDTDNSGTITFEELKAGLKRVGSELMESEIKSLMDAADIDNSGTIDYGEFLAATLHMNKMEREENLVAAFSYFDKDGSGYITIDELQSACTEFGLCDTPLDDMIKEIDLDNDGKIDFSEFTAMMRKGDGVGRSRTMMKNLNFNIADAFGVDGEKSDD
# partner: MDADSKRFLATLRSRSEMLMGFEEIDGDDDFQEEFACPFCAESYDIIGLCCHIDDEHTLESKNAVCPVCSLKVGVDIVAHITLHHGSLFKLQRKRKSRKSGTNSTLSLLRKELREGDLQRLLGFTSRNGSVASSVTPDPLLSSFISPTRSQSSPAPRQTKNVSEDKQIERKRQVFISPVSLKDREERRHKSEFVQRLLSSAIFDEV
# B2: Protein …ON-INDUCED 19 (Arabidopsis thaliana (Mouse-ear cress)), Q39083 (parent)
# chain: B1 partner
# partner: B1 chain
# Variants of: B1
# Details: with di191_arath DI19-1, Q39083
row,Variant,effect of a mutation on the interaction
1,D171A;F306A,increasing interaction
2,D150A;F306A,increasing interaction

# Variants of: B1
# Details: with di191_arath DI19-1, Q39083
# Remark: another data set of the same source
row,Variant,effect of a mutation on the interaction
1,F306A,increasing interaction

# Variants of: B1
# Details: with di191_arath DI19-1, Q39083
# Remark: another data set of the same source
row,Variant,effect of a mutation on the interaction
1,D150A,increasing interaction

# Variants of: B1
# Details: with di191_arath DI19-1, Q39083
# Remark: another data set of the same source
row,Variant,effect of a mutation on the interaction
1,D150A,disrupting interaction

# Variants of: B2
# Details: with cdpkb_arath CPK11, Q39016
row,Variant,effect of a mutation on the interaction
1,S107A,decreasing interaction
2,T105A,decreasing interaction
